We go through two sequences from publication PMC4699771.

The data set has as its system T1, YhaJ (Escherichia coli EHEC O157:H7? EDL933 (amplified from TUV93-0 genomic DNA)), ORF:62819c23.
T1 sequence: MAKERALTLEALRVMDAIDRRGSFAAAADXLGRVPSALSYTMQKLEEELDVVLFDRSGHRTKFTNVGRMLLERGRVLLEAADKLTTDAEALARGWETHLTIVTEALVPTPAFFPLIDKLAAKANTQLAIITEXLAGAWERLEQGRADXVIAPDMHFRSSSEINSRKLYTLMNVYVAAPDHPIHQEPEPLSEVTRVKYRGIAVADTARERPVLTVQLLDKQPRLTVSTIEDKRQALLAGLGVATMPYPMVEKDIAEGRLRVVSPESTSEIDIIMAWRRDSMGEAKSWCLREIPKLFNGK
In words: EMSA. To be noted: EMSA: Roche DIG Gel Shift Kit 2nd Gen (buffer, salt and pH not stated), 30 min at 30 C, YhaJ 0-1 uM, DIG probe diluted to 0.4 ng/ul, 6% DNA retardation gel. Background: A gel shift assay detects complexes by their altered migration in electrophoresis.

“CCTGCTGTAGAACTGCAATTTGCTCTATAAGCTGAATGTATGGACTTGTTGTATGTGAATTATTTTCCATATTCATAATAAATAATCTCCGCATGCTTTAATATTTTAAGCTATTAGCGACCTTATCAGGAAGGACCAACAATTAATCAAATGATATAAATTATGTGAGATAACGTTTATCTATCAAATTAGGACACATCTATTTCATCAAACAACCACCTTAAAATG (double strand) [LEE1 P2 promoter probe]”: the binding entry is on record as “no binding”.

For the sequence “TCGCTCAATATTTTGTAGGGCTTATTATTTTTTTCCGAGCCGCATCAAGGCGATATGCGGTCTACGTTTTTGCAGGCGAGTTATTAGAATAAAGAAATGATACGCGCGAGGTCAGAGAAAATCTTCACAATCAAGACTTTGAAATAACGGAGATGGATAAGAATTTTCTACTAAATTAATCGCAAGAGAATATTCACTCTCTATTTGCGGCAGATCACAAAAAAAAGGTGCACATTTGTGCACCCAAGGATGAAAGCTGACAGCAATGTCAGCCGCAGACCACTTTAATGGCCAGTCCGC (double strand) [pyhaO promoter probe]”, the binding result was “binds”.
